Our source for the binding signal values is article PMC6555819, “Comprehensive study of nuclear receptor DNA binding provides a revised framework for understanding receptor specificity”.

One series concerns the target PPARg:RXRa (Homo sapiens, UniProt P37231;P19793 full;full). Description: no ligand; PBM; 180 nM : 90 nM RXRa; PBS pH 7.4, 2% milk, 0.02% Triton X-100, 1 mM DTT, BSA, 0.4 mg/ml salmon testes DNA. The settings on record: tags: His kept;His cleaved; copies: 1;1; label: surface-attached array probe.
The target of the next series is RARg:RXRa (Homo sapiens, UniProt P13631;P19793 full;full). The series can be described thus: no ligand; PBM; 270 nM : 90 nM RXRa; PBS pH 7.4, 2% milk, 0.02% Triton X-100, 1 mM DTT, BSA, 0.4 mg/ml salmon testes DNA. The conditions noted are these: tags: His kept;His cleaved; copies: 1;1; label: surface-attached array probe. Summed up: (§1)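 Ligand-free nuclear receptor dimers were applied to custom Agilent 4×180K protein-binding microarrays whose double-stranded probes carried direct-repeat seeds, single-nucleotide variants, half-site ablations and random human genomic background sequences in 34-nt variable regions. Incubation lasted 1 h. Binding z-scores were computed against the random background probes from regression-normalized fluorescence.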

The target in the next series is PPARa:RXRa (Homo sapiens, UniProt Q07869;P19793 full;full). The description is as above. The conditions noted are these: tags: GST kept;His cleaved; copies: 1;1; label: surface-attached array probe. The method, boiled down:
as §1

For the next series, the target named is FXR:RXRa (Homo sapiens, UniProt Q96RI1;P19793 full;full). The description is as above. The conditions noted are these: tags: His kept;His cleaved; copies: 1;1; label: surface-attached array probe. The method, boiled down: as §1
Sequence of FXR:RXRa (Q96RI1 whole entry, chain 1 of 2): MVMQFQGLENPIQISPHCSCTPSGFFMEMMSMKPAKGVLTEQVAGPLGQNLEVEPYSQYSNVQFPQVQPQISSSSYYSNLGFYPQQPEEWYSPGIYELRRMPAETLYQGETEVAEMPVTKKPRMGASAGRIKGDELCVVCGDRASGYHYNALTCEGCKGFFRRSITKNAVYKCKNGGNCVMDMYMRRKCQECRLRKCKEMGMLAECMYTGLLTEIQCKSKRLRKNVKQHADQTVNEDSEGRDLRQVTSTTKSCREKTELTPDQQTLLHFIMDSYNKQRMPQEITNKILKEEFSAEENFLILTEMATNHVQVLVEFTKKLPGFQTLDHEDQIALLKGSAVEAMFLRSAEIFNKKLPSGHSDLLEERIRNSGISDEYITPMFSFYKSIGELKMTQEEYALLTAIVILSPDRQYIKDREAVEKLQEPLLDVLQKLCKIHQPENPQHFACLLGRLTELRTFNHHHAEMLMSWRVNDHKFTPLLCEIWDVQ
Sequence of FXR:RXRa (P19793 whole entry, chain 2 of 2): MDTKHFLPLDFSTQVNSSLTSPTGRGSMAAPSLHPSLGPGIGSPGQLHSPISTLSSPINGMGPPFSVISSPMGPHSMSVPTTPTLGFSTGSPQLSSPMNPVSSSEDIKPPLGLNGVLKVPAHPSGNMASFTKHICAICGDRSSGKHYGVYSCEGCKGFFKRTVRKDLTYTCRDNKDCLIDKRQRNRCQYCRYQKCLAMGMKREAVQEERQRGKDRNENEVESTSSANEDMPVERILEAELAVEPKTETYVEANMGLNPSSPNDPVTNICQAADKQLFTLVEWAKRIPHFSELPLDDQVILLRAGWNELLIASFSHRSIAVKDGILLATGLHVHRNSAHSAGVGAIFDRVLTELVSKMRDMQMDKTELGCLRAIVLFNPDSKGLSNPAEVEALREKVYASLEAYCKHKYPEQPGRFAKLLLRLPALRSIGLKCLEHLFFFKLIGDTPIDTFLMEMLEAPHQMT

Sequence of PPARa:RXRa (Q07869 whole entry, chain 1 of 2): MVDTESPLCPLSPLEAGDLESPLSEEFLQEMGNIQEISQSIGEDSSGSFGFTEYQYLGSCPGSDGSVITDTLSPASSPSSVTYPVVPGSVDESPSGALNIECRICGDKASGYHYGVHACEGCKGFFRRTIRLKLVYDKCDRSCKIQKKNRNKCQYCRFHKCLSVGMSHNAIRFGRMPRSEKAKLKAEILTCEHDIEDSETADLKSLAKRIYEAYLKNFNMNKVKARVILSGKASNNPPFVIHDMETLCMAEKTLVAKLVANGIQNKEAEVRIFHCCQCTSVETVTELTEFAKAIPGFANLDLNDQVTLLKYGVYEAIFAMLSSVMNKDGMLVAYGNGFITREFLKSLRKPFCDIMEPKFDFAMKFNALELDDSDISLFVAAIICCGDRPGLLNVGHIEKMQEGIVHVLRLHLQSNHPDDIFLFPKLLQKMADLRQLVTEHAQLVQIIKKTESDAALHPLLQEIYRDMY
Sequence of PPARa:RXRa (P19793 whole entry, chain 2 of 2): as the sequence (P19793 whole entry, chain 2 of 2) above
Sequence of RARg:RXRa (P13631 whole entry, chain 1 of 2): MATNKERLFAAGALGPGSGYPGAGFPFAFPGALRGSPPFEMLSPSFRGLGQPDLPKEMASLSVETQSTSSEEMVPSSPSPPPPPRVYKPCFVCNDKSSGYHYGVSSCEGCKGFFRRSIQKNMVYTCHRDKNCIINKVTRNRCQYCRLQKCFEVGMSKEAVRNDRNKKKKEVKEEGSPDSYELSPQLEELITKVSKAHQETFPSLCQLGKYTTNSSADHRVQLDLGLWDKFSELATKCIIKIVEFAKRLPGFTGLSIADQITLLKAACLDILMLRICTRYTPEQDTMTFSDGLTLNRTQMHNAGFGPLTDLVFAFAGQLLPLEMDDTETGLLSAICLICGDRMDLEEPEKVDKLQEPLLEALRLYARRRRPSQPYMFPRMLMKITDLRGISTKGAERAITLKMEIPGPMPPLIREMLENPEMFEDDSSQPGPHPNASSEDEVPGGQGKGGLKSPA
Sequence of RARg:RXRa (P19793 whole entry, chain 2 of 2): as the sequence (P19793 whole entry, chain 2 of 2) above
Sequence of PPARg:RXRa (P37231 29-505, chain 1 of 2): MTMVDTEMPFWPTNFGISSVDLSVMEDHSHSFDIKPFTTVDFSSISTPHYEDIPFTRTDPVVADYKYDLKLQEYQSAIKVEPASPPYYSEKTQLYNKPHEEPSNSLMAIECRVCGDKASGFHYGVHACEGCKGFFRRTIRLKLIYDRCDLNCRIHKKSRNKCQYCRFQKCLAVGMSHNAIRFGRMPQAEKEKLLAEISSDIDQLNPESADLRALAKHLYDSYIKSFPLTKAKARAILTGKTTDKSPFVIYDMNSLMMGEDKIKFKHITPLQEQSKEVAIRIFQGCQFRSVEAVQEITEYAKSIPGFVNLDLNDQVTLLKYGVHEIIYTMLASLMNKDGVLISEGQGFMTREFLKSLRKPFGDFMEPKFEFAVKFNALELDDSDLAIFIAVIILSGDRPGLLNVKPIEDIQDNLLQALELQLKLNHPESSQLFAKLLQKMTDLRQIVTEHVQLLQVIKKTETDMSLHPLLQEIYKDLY
Sequence of PPARg:RXRa (P19793 whole entry, chain 2 of 2): as the sequence (P19793 whole entry, chain 2 of 2) above

B1: NRC3_random_hg19_249_o1 (dsDNA)
DNA 1: GCTTTCCCACAATGTGTAGTTAGAGTTTGAGTTGTGGCGATTGACAGCGTAGAATGAAGG
DNA 2: CCTTCATTCTACGCTGTCAATCGCCACAACTCAAACTCTAACTACACATTGTGGGAAAGC
As to B1, the binding signal with PPARg:RXRa was -0.37 PBM z-score against 500 random probes; in the series with RARg:RXRa it was -0.1 PBM z-score against 500 random probes.

B2: NRC3_wobSeed121_DR5_A4T_o1 (dsDNA)
DNA 1: GCCTAACTAGGTCACCGGAAGGTCAAAGTCCGCATGGCGATTGACAGCGTAGAATGAAGG
DNA 2: CCTTCATTCTACGCTGTCAATCGCCATGCGGACTTTGACCTTCCGGTGACCTAGTTAGGC
Consider B2, for which, in the series with PPARg:RXRa, the binding signal is 10.2 PBM z-score against 500 random probes.

B3: NRC3_wobSeed41_DR1_T13G_o1 (dsDNA)
DNA 1: GCATATGTAGGTGAAGGGTCATTCAGGTTGGTTCGCGCGATTGACAGCGTAGAATGAAGG
DNA 2: CCTTCATTCTACGCTGTCAATCGCGCGAACCAACCTGAATGACCCTTCACCTACATATGC
On to B3, for which the binding signal with PPARg:RXRa is 12.8 PBM z-score against 500 random probes; in the series with PPARa:RXRa, 7.07 PBM z-score against 500 random probes.

B4: NRC3_wobSeed39_DR1_A19G_o1 (dsDNA)
DNA 1: GCCGAACTAGGTCAAAGGGCAGTGAAAGGCGACGTAGCGATTGACAGCGTAGAATGAAGG
DNA 2: CCTTCATTCTACGCTGTCAATCGCTACGTCGCCTTTCACTGCCCTTTGACCTAGTTCGGC
In the case of B4, the figures for the binding signal with PPARg:RXRa and with PPARa:RXRa were 12.3 PBM z-score against 500 random probes and 6.69 PBM z-score against 500 random probes, respectively.

B5: NRC3_wobSeed33_DR1_C5A_o1 (dsDNA)
DNA 1: GCATATCTAGGTAAAAGTTCAGTGAATCCCGAGGATGCGATTGACAGCGTAGAATGAAGG
DNA 2: CCTTCATTCTACGCTGTCAATCGCATCCTCGGGATTCACTGAACTTTTACCTAGATATGC
Regarding B5, the binding signal in the series with PPARg:RXRa is 10.1 PBM z-score against 500 random probes.

B6: NRC3_wobSeed133_DR5_T12A_o1 (dsDNA)
DNA 1: GCCGTCCAAGGACAATGCTAGGTCAGTGAAAGCATTGCGATTGACAGCGTAGAATGAAGG
DNA 2: CCTTCATTCTACGCTGTCAATCGCAATGCTTTCACTGACCTAGCATTGTCCTTGGACGGC
Regarding B6, the figures for the binding signal in the series with PPARg:RXRa and with FXR:RXRa were 0.18 PBM z-score against 500 random probes and 0.29 PBM z-score against 500 random probes, respectively.

B7: NRC3_wobSeed47_DR1_G8T_o1 (dsDNA)
DNA 1: GCGGAACTAGGGCAAAGTTGATAGCATCTGTCGACGGCGATTGACAGCGTAGAATGAAGG
DNA 2: CCTTCATTCTACGCTGTCAATCGCCGTCGACAGATGCTATCAACTTTGCCCTAGTTCCGC
As for B7, in the series with PPARg:RXRa, the binding signal was 10 PBM z-score against 500 random probes.

B8: NRC3_wobSeed66_DR2_C20T_o1 (dsDNA)
DNA 1: GCAATACAGGGTCACTAGGTCAGAGTAGGTACGAATGCGATTGACAGCGTAGAATGAAGG
DNA 2: CCTTCATTCTACGCTGTCAATCGCATTCGTACCTACTCTGACCTAGTGACCCTGTATTGC
On to B8, for which the binding signal with PPARg:RXRa was 9.89 PBM z-score against 500 random probes.

B9: NRC3_random_hg19_393_o1 (dsDNA)
DNA 1: GCTCCCAGCCACTCAGGAGGCTGAGGCAGGAGAATTGCGATTGACAGCGTAGAATGAAGG
DNA 2: CCTTCATTCTACGCTGTCAATCGCAATTCTCCTGCCTCAGCCTCCTGAGTGGCTGGGAGC
Take B9: the binding signal is -0.69 PBM z-score against 500 random probes with PPARg:RXRa and -1.65 PBM z-score against 500 random probes in the series with FXR:RXRa.

B10: NRC3_wobSeed32_DR1_T20C_o1 (dsDNA)
DNA 1: GCTCTTGTAGATCAAAGGTCAAGAAAGCCGAAGCCTGCGATTGACAGCGTAGAATGAAGG
DNA 2: CCTTCATTCTACGCTGTCAATCGCAGGCTTCGGCTTTCTTGACCTTTGATCTACAAGAGC
As for B10, the binding signal with PPARg:RXRa is 9.91 PBM z-score against 500 random probes.

B11: NRC3_random_hg19_447_o1 (dsDNA)
DNA 1: GCCTCTCTTTCTCTCTCTCTCTCTCTCTCTCTCTCTGCGATTGACAGCGTAGAATGAAGG
DNA 2: CCTTCATTCTACGCTGTCAATCGCAGAGAGAGAGAGAGAGAGAGAGAGAGAAAGAGAGGC
In the case of B11, the binding signal with PPARg:RXRa was -3.64 PBM z-score against 500 random probes; in the series with RARg:RXRa, -0.31 PBM z-score against 500 random probes.

B12: NRC3_wobSeed40_DR1_A4G_o1 (dsDNA)
DNA 1: GCTGGCCTAGGTCATGGGCCAGTATACCACGCGAACGCGATTGACAGCGTAGAATGAAGG
DNA 2: CCTTCATTCTACGCTGTCAATCGCGTTCGCGTGGTATACTGGCCCATGACCTAGGCCAGC
Turning to B12, the binding signal with PPARg:RXRa was 3.34 PBM z-score against 500 random probes; with RARg:RXRa, 4.24 PBM z-score against 500 random probes.

B13: NRC3_wobSeed28_DR1_C4T_o1 (dsDNA)
DNA 1: GCCTTACTGGGCCAAAGGTCATTGATTCCAATGCTCGCGATTGACAGCGTAGAATGAAGG
DNA 2: CCTTCATTCTACGCTGTCAATCGCGAGCATTGGAATCAATGACCTTTGGCCCAGTAAGGC
Take B13: the figures for the binding signal in the series with PPARg:RXRa and in the series with PPARa:RXRa were 12.9 PBM z-score against 500 random probes and 7.1 PBM z-score against 500 random probes, respectively.

B14: NRC3_wobSeed26_DR1_C4T_o1 (dsDNA)
DNA 1: GCTTTAGTTGGTCAAAGGTCACACACTCGAAATGCGGCGATTGACAGCGTAGAATGAAGG
DNA 2: CCTTCATTCTACGCTGTCAATCGCCGCATTTCGAGTGTGTGACCTTTGACCAACTAAAGC
B14: the binding signal with PPARg:RXRa is 12.1 PBM z-score against 500 random probes; in the series with PPARa:RXRa, 6.88 PBM z-score against 500 random probes.

B15: NRC3_wobSeed27_DR1_C6T_o1 (dsDNA)
DNA 1: GCACTTGGAGGACAAAGGTCAGAGCTACGCCAGTGAGCGATTGACAGCGTAGAATGAAGG
DNA 2: CCTTCATTCTACGCTGTCAATCGCTCACTGGCGTAGCTCTGACCTTTGTCCTCCAAGTGC
Regarding B15, the binding signal in the series with PPARg:RXRa was 10.1 PBM z-score against 500 random probes.

B16: NRC3_wobSeed27_DR1_C6A_o1 (dsDNA)
DNA 1: GCACTAGGAGGACAAAGGTCAGAGCTACGCCAGTGAGCGATTGACAGCGTAGAATGAAGG
DNA 2: CCTTCATTCTACGCTGTCAATCGCTCACTGGCGTAGCTCTGACCTTTGTCCTCCTAGTGC
Take B16: the binding signal with PPARg:RXRa is 10 PBM z-score against 500 random probes.

B17: NRC3_wobSeed15_DR0_G11T_o1 (dsDNA)
DNA 1: GCCGAACTAGTTCAAGGACAGTGAATCTCCGCACGCGCGATTGACAGCGTAGAATGAAGG
DNA 2: CCTTCATTCTACGCTGTCAATCGCGCGTGCGGAGATTCACTGTCCTTGAACTAGTTCGGC
Take B17: the binding signal was 0.49 PBM z-score against 500 random probes in the series with PPARg:RXRa and 0.44 PBM z-score against 500 random probes with PPARa:RXRa.

B18: NRC3_wobSeed35_DR1_T11G_o1 (dsDNA)
DNA 1: GCGCTATTAGGTGAAAGGGCAACCGAATGATTCTCGGCGATTGACAGCGTAGAATGAAGG
DNA 2: CCTTCATTCTACGCTGTCAATCGCCGAGAATCATTCGGTTGCCCTTTCACCTAATAGCGC
Take B18: the binding signal with PPARg:RXRa is 9.85 PBM z-score against 500 random probes.

B19: NRC3_wobSeed1_DR0_G23T_o1 (dsDNA)
DNA 1: GCCAAACTAGGTCAAGGTCAAATTCGGTTTGTGCCAGCGATTGACAGCGTAGAATGAAGG
DNA 2: CCTTCATTCTACGCTGTCAATCGCTGGCACAAACCGAATTTGACCTTGACCTAGTTTGGC
As for B19, the binding signal in the series with PPARg:RXRa is 10.2 PBM z-score against 500 random probes.

B20: NRC3_wobSeed1_DR0_C7G_o1 (dsDNA)
DNA 1: GCCAAAGTAGGTCAAGGTCAAAGTCGGTTTGTGCCAGCGATTGACAGCGTAGAATGAAGG
DNA 2: CCTTCATTCTACGCTGTCAATCGCTGGCACAAACCGACTTTGACCTTGACCTACTTTGGC
On to B20, for which the binding signal with PPARg:RXRa is 10 PBM z-score against 500 random probes.

B21: NRC3_wobSeed1_DR0_A4T_o1 (dsDNA)
DNA 1: GCCTAACTAGGTCAAGGTCAAAGTCGGTTTGTGCCAGCGATTGACAGCGTAGAATGAAGG
DNA 2: CCTTCATTCTACGCTGTCAATCGCTGGCACAAACCGACTTTGACCTTGACCTAGTTAGGC
For B21, the binding signal with PPARg:RXRa is 10 PBM z-score against 500 random probes.

B22: NRC3_wobSeed1_DR0_C25A_o1 (dsDNA)
DNA 1: GCCAAACTAGGTCAAGGTCAAAGTAGGTTTGTGCCAGCGATTGACAGCGTAGAATGAAGG
DNA 2: CCTTCATTCTACGCTGTCAATCGCTGGCACAAACCTACTTTGACCTTGACCTAGTTTGGC
Take B22: the binding signal with PPARg:RXRa is 9.94 PBM z-score against 500 random probes.

B23: NRC3_wobSeed65_DR2_T13C_o1 (dsDNA)
DNA 1: GCATATGTAGGTCATCGGGTCATTCAGTTTGCGCATGCGATTGACAGCGTAGAATGAAGG
DNA 2: CCTTCATTCTACGCTGTCAATCGCATGCGCAAACTGAATGACCCGATGACCTACATATGC
On to B23, for which, in the series with PPARg:RXRa, the binding signal is 10.2 PBM z-score against 500 random probes.

B24: NRC3_wobSeed17_DR0_T13C_o1 (dsDNA)
DNA 1: GCATATGTAGGTCAGGGTCATTCAGAAAGTAGGGAAGCGATTGACAGCGTAGAATGAAGG
DNA 2: CCTTCATTCTACGCTGTCAATCGCTTCCCTACTTTCTGAATGACCCTGACCTACATATGC
For the molecule B24, in the series with PPARg:RXRa, the binding signal was 9.79 PBM z-score against 500 random probes.

B25: NRC3_wobSeed89_DR3_T13G_o1 (dsDNA)
DNA 1: GCCTATGTAGGTGAAGGGGGTCATTCAGTTTGAAAGGCGATTGACAGCGTAGAATGAAGG
DNA 2: CCTTCATTCTACGCTGTCAATCGCCTTTCAAACTGAATGACCCCCTTCACCTACATAGGC
In the case of B25, the binding signal in the series with PPARg:RXRa is 9.64 PBM z-score against 500 random probes.

B26: NRC3_wobSeed30_DR1_G16A_o1 (dsDNA)
DNA 1: GCACTAGCAGGCCAAAGGTCACTCAAGATTAGTCCGGCGATTGACAGCGTAGAATGAAGG
DNA 2: CCTTCATTCTACGCTGTCAATCGCCGGACTAATCTTGAGTGACCTTTGGCCTGCTAGTGC
Consider B26, for which, in the series with PPARg:RXRa, the binding signal was 10.2 PBM z-score against 500 random probes.

B27: NRC3_random_hg19_62_o1 (dsDNA)
DNA 1: GCAGATGGGAGAGTTCCCTTGATTCCTTTGTGGGAGGCGATTGACAGCGTAGAATGAAGG
DNA 2: CCTTCATTCTACGCTGTCAATCGCCTCCCACAAAGGAATCAAGGGAACTCTCCCATCTGC
In the case of B27, the binding signal with PPARg:RXRa was -0.56 PBM z-score against 500 random probes; in the series with PPARa:RXRa, -0.1 PBM z-score against 500 random probes.
